Source: patent US20240349732A1 (IMPETUS AGRICULTURE, published 2024)
Changes are numbered by the printed parent chain.

T1: 57NAAT1like (second extracellular loop of Spodoptera frugiperda sodium-dependent nutrient amino acid … (Spodoptera frugiperda))
T1 construct: 57 aa antigen; also called NAAT antigen
T1 chain: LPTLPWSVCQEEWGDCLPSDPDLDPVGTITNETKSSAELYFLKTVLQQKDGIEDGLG

T2: tagless FAW Cadherin antigen (Spodoptera frugiperda)
T2 construct: the batch used for panning is called tagless; also called Sp.f Cadherin
T2 chain: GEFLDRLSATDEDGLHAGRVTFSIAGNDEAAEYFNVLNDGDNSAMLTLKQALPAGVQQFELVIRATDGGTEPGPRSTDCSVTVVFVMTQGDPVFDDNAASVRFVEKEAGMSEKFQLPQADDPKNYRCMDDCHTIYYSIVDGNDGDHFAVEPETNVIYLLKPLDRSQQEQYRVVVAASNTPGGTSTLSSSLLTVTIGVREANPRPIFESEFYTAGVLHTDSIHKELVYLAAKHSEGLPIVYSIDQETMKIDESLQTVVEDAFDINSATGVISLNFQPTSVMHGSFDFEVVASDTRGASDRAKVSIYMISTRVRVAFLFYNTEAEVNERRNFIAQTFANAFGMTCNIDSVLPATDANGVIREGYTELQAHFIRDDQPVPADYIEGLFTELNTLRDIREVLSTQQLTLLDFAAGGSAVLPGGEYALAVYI

B1: NAAT monospecific nanobody #2 (VHH)
VHH: QVQLQESGGGVVQTGGSLTLSCKASRRTSGFAMAWFRQAPGMEREFVAGIGRTGDNIHYLDSVKGRFTISRDNTKNTLSLQMNSLRPGDTAVYYCAADVTKSGFIYWGQGTQVTVSS
notes: Llama VHH; also called NAAT2
B2: NAAT monospecific nanobody #5 (VHH)
VHH: QVQLQESGGGLVQPGGSLRLACVLSGGPSSSYGVGWFRQRSGTEREFVAAISGSGRTIHYVDDVKGRFAISRDSAKNAVDLQMNNLKPEDTAVYYCAALALVTTHPTSNVGEWDYWGQGTQVTVSS
notes: Llama VHH; also called NAAT5
B3: NAAT monospecific nanobody #6 (VHH)
VHH: QVQLQESGGGVVQTGGSLTLSCKASRRTSGFAMAWFRQAPGMEREFVAGIGRTGDNIHYLDSVKGRFTISRDNTKNTLSLQMNSLKSEDTAVYYCAKVVVVAGSPSFDAWGQGTQVTVSS
notes: Llama VHH; also called NAAT6
B4: NAAT monospecific nanobody #10 (VHH)
VHH: QVQLQESGGGLVQAGGSLTLSCAFSGRTFTHYAMAWFRQAPGKERKFVAGVTRSGPNTYYDDSVQGRFTISRDNAKNTVYLHMNSLKPEDTAVYYCAANSGVVSGYDYWGQGTQVTVSS
notes: Llama VHH; also called NAAT10
B5: NAAT monospecific nanobody #29 (VHH)
VHH: QVQLQESGGGVVQTGGSLTLSCKASRRTSGFAMAWFRQAPGMEREFVAGIGRTGDNIHYLDSVKGRFTISRDNTKNTLSLQMNNLKPEDTAVYYCLRTMGGTWSEKGQGTQVTVSS
notes: Llama VHH; also called NAAT29
B6: Cadherin monospecific nanobody #2 (VHH)
VHH: QVQLQESGGGLVQAGASLRLSCAASRRTGSSLTMGWFRQAPGKEREFVAAISRSGIRTYYADFVKGRFTISRDNAKNTLYLQMNSLKPEDTAVYYCAANDKTYGSGLDVYTRRQNYYYWGPGTQVTVSS
notes: Llama VHH; also called Cad2
B7: Cadherin monospecific nanobody #43 (VHH)
VHH: B6 VHH with V12A, N115D
notes: Llama VHH; also called Cad43
B8: Cadherin monospecific nanobody #48 (VHH)
VHH: B6 VHH with K43R, N115D
notes: Llama VHH; also called Cad48
B9: Cadherin monospecific nanobody #46 (VHH)
VHH: QVQLQESGGGSVQAGGSLKLSCAASGTESIFIVMGWYRQAPGKERELVAAMSFGGGTNVTDGVRGRFTISRDFDKNTVDLQMNNLKTEDTAVYYCNAVQWGPRDYWGQGTQVTVSS
notes: Llama VHH; also called Cad46
B10: Cadherin monospecific nanobody #50 (VHH)
VHH: QVQLQESGGGLVQAGASLRLSCAASRRTGSSLTMGWFRQAPGKEREFVAAISRSGIRTYYADFVKGRFTISRDNGENTLYLQINSLKPEDTAVYYCAASSNPGYYRTAPNQYNFWGPGTQVTVSS
notes: Llama VHH; also called Cad50
B11: NAAT monospecific nanobody #1 (VHH)
VHH: QVQLQESGGGLVQAGGSLRLSCAASGRTFSRYAMGWFRQALGKEREFVAGINWSGSMTYYADSVKGRFTISRDNAKNMLYLQMNSLKSEDTAVYYCAGVTVVGGAPAFDYWGQGTQVTVSS
notes: Llama VHH; also called NAAT1

Columns and labels:
[1] = biological target: T1, 57NAAT1like (second extracellular loop …); assay: ELISA of periplasmic extracts on passively coated non-biotinylated 57NAAT1like
[2] = biological target: T2, tagless FAW Cadherin antigen; assay: screen of colonies after 3 rounds of phage panning on solid-phase coated tagless FAW Cadherin antigen

Row | Binder | binding result [1] | binding result [2]
1 | B1 | binds | –
2 | B2 | binds | –
3 | B3 | binds | –
4 | B4 | binds | –
5 | B5 | binds | –
6 | B6 | – | binds
7 | B7 | – | binds
8 | B8 | – | binds
9 | B9 | – | binds
10 | B10 | – | binds
11 | B11 | binds | –
